Patent US20160053248A1, “SYSTEMS AND METHODS FOR EVOLVING ENZYMES WITH DESIRED ACTIVITIES” (Potomac Affinity Proteins, LLC, priority 2009, published 2016)
Primed or numbered codes have the meaning given here. No end group written: not given here. *: point of attachment. Dabcyl′ = CN(C)c1ccc(/N=N/c2ccc(C(=O)*)cc2)cc1

Tests used:
[1] = molecular target: SBT189-Dabcyl conjugate (Bacillus amyloliquefaciens (Bacillus velezensis)) (UniProt P00782); experiment: single turn-over kinetics, quenching of GFP fluorescence by Dabcyl; 0.1M KPO4, pH 7.2, 5 mM azide, 22° C
GA-PFRAL-S-GB [2] = system: GA-PFRAL-S-GB
SBT189 [3] = experiment: Transient state kinetics with FRET peptide: product release and product binding; design: species or system Bacillus amyloliquefaciens; details: not influenced by azide concentration
Protocol: The deacylation reaction and product release: A self-quenched FRET peptide that becomes highly fluorescent when cleaved (Dabcyl-EEDKLFRAL-SATE(EDANS)G (SEQ ID NO:16)) was synthesized. This peptide has been used to determine transient state kinetic parameters. Deacylation of SBT189 in 50 mM azide is faster (3.3 s^−1) than the wild type counterpart (1.8 s^−1). The rate of product (Dabcyl-EEDKLFRAL; (SEQ ID NO:17)) release is 6 s^−1 and Kp is 1.2 μM. Product binding is not influenced by azide concentration. Strong product binding of subtilisin-phage to GA-PCOGNATE- is used for the collection of active mutants in the release step in phage selection (see FIG. 5). Binding is constitutive at this step, however, and is not used to increase selectivity.

SBT189 [4] = details: read-out: apparent KD for azide; anion binding to the enzyme-substrate complex
Description: The acylation reaction: Step 2 describes conversion of the ternary complex into an acyl-enzyme with the concomitant release to the C-terminal portion of the substrate. With substrates used in phage display, the GB domain is released concomitantly with the acylation step. If a fluorescent reporter group is attached to subtilisin, a decrease in energy transfer enables time-dependent quantitation of acylation.

SBT189 [5] = experiment: Activation cascade: release of free SBT189 from prodomain inhibitor complexes; type: biochemical, Bacillus amyloliquefaciens
Protocol: (§1) To do this complexes of SBT189 were formed with two different prodomain inhibitors. The first complex contained 100 μM of SBT189 and prodomain variant pS156, and the second complex contained 100 μM SBT189 and prodomain variant pS170. To start the activation cascade, 10 nM wild type subtilisin was added to each complex. Wild type subtilisin is able to cleave both the loop sequence MSTM (SEQ ID NO:23) in pS156 and the loop sequence YKTM (SEQ ID NO:22) in pS170. After 5 minutes of digestion, the wild type subtilisin was inactivated by the addition of EDTA to 1 mM and heating to 55° C. for 10 minutes. Azide was then added to the reactions to 10 mM and the activity of free SBT189 subtilisin was then measured as a function of time. The release of free SBT189 from the pS156 complex occurs at a rate of about 1 days^−1. This is because the cleavage of the loop sequence MSTM (SEQ ID NO:23) by SBT189 is very slow. In contrast, the complete activation of SBT189 from the pS170 complex occurs within 10 minutes. Because SBT189 can readily cleave the loop sequence YKTL (SEQ ID NO:24), SBT189 is rapidly released after the self-activating chain reaction is initiated by wild type subtilisin. Thus the protease signal from the pS170 complex increases about 10^4-fold in 10 minutes (from 10 nM to 100 μM).

[6] = molecular target: T1, subtilisin variant SBT189 (Bacillus amyloliquefaciens (Bacillus …, UniProt P00782 108-382)); experiment: complex formed at 100 µM for the activation cascade
T1 construct: Engineered subtilisin BPN' variant with D32A; also called S189; RSUB1
T1 chain: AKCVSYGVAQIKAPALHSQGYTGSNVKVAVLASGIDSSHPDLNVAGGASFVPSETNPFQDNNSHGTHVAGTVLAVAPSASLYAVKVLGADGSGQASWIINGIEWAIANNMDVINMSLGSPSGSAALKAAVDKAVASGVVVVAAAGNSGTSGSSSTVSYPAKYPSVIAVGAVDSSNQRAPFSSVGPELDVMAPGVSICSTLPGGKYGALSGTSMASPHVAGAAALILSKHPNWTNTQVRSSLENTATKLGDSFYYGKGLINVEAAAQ
Protocol: as §1, with “days⁻¹.” for “days^−1.”, “10⁴-fold” for “10^4-fold”

[7] = molecular target: T1, subtilisin variant SBT189; experiment: transient state kinetics with the FRET peptide
[8] = molecular target: GB-GFP fusion protein with cognate variation LFQSL-SA, P06654
[9] = molecular target: GB-GFP fusion protein with cognate variation LFRAL-MA, P06654
[10] = molecular target: GB-GFP fusion protein with cognate variation LFRAM-SA, P06654
[11] = molecular target: GB-GFP fusion protein with cognate variation LFRAY-SA, P06654
[12] = molecular target: GB-GFP fusion protein with cognate variation LLRAL-SA, P06654
[13] = molecular target: GB-GFP fusion protein with cognate variation LYRAL-SA, P06654
[14] = molecular target: GB-GFP fusion protein with cognate variation VFKAM-SG, P06654
GA-PFRAL-S-GB [15] = molecular target: GA-PFRAL-S-GB; remark: listed apart in the source
prodomain variant pS156 = molecular target: T2, prodomain variant pS156
T2 chain: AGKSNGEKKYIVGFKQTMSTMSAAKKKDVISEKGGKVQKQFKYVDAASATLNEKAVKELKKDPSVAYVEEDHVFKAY

prodomain variant pS170 = molecular target: T3, prodomain variant pS170
T3 chain: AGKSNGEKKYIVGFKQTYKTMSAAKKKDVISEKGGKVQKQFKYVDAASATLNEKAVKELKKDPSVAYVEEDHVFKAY

[16] = 100 μM complex, started with 10 nM wild type subtilisin, 10 mM azide

## GB-GFP fusion protein with cognate variation LFRAY-SA (from UniProt P06654 228-282)
[1]
  KS: 1900 µM

## subtilisin synthesized as a fusion protein on the surface of M13 phage
GA-PFRAL-S-GB [2]
  enrichment of phagemid relative to helper phage after one round of catch and release selection: 350 fold enrichment

## GB-GFP fusion protein with cognate variation LYRAL-SA (from UniProt P06654 228-282)
[1]
  KS: 88 µM

## GB-GFP fusion protein with cognate variation LLRAL-SA (from UniProt P06654 228-282)
[1]
  KS: 670 µM

## GB-GFP fusion protein with cognate variation VFKAM-SG (from UniProt P06654 228-282)
[1]
  KS: 43 µM

## GB-GFP fusion protein with cognate variation LFQSL-SA (from UniProt P06654 228-282)
[1]
  KS: 66 µM

## Dabcyl-EEDKLFRAL ({Dabcyl′}-EEDKLFRAL)
SBT189 [3]
  rate of product release: 6 s⁻¹

## GB-GFP fusion protein with cognate variation LFRAL-MA (from UniProt P06654 228-282)
[1]
  KS: 24 µM

## GB-LFRAL-SA-GFP (from UniProt P06654 228-282)
[1]
  KS: 16 µM

## [N-]=[N+]=[N-] [azide]
SBT189 [4]
  Kd: 50 mM

## GB-GFP fusion protein with cognate variation LFRAM-SA (from UniProt P06654 228-282)
[1]
  KS: 36 µM

B1: prodomain variant pS170 (other)
chain: AGKSNGEKKYIVGFKQTYKTMSAAKKKDVISEKGGKVQKQFKYVDAASATLNEKAVKELKKDPSVAYVEEDHVFKAY
notes: M18Y, S19K, A74F, H75K against the prodomain; also called p5170
SBT189 [5]; [16]
  time to complete activation of SBT189 from the complex: ≤ 10 min
SBT189 [5]; in 10 minutes (from 10 nM to 100 μM)
  increase of protease signal: about 10^4 fold
[6]
  binding result: binds

B2: pS156 (protein)
chain: AGKSNGEKKYIVGFKQTMSTMSAAKKKDVISEKGGKVQKQFKYVDAASATLNEKAVKELKKDPSVAYVEEDHVFKAY
SBT189 [5]; [16]
  rate of release of free SBT189 from the complex: about 1 days^−1

B3: Dabcyl-EEDKLFRAL (peptide)
peptide: {Dabcyl′}-EEDKLFRAL
notes: Acyl-side cleavage product of the FRET peptide; also called product
[7]
  koff: 6 s⁻¹

B4: SBT189-Dabcyl conjugate (protein)
chain: AKCVSYGVAQIKAPALHSQGYTGSNVKVAVLASGIDSSHPDLNVAGGASFVPSETNPFQDNNSHGTHVAGTVLAVAPSASLYAVKVLGADGSGQASWIINGIEWAIANNMDVINMSLGSPSGSAALKAAVDKAVASGVVVVAAAGNSGTSGSSSTVSYPAKYPSVIAVGAVDSSNQRAPFSSVGPELDVMAPGVSICSTLPGGKYGALSGTSMASPHVAGAAALILSKHPNWTNTQVRSSLENTATKLGDSFYYGKGLINVEAAAQ
[8]
  Relative k2/KS: 0.04
  acylation rate (k2): 0.23 s⁻¹
[9]
  Relative k2/KS: 0.027
  acylation rate (k2): 0.06 s⁻¹
[10]
  Relative k2/KS: 0.32
  acylation rate (k2): 1 s⁻¹
[11]
  Relative k2/KS: 0.001
  acylation rate (k2): 0.17 s⁻¹
[12]
  Relative k2/KS: 0.01
  acylation rate (k2): 0.59 s⁻¹
[13]
  Relative k2/KS: 0.03
  acylation rate (k2): 0.23 s⁻¹
[14]
  Relative k2/KS: 0.004
  acylation rate (k2): 0.017 s⁻¹
GB-LFRAL-SA-GFP, P06654
  Relative k2/KS: 1
  activity against the cognate sequence, relative to VFKAM-SG: 250-times greater
  acylation rate (k2): 1.4 s⁻¹

B5: subtilisin variant SBT189 (protein)
chain: AKCVSYGVAQIKAPALHSQGYTGSNVKVAVLASGIDSSHPDLNVAGGASFVPSETNPFQDNNSHGTHVAGTVLAVAPSASLYAVKVLGADGSGQASWIINGIEWAIANNMDVINMSLGSPSGSAALKAAVDKAVASGVVVVAAAGNSGTSGSSSTVSYPAKYPSVIAVGAVDSSNQRAPFSSVGPELDVMAPGVSICSTLPGGKYGALSGTSMASPHVAGAAALILSKHPNWTNTQVRSSLENTATKLGDSFYYGKGLINVEAAAQ
GA-PFRAL-S-GB [15]
  cleavage rate in the absence of azide: 0.12 min⁻¹
GB-LFRAL-SA-GFP, P06654
  digestion of the fusion protein, protein gel and MALDI-MS: The fusion protein was correctly and specifically processed to release GB-LFRAL and SA-GFP
Prodomain variant pS156
  release of free SBT189 from the complex: about 1 days^-1
Prodomain variant pS170
  complete activation of SBT189 from the complex: occurs within 10 minutes
  increase of the protease signal from the complex: increases about 10^4-fold in 10 minutes (from 10 nM to 100 µM)

B6: RSUB1(AF350) (protein)
chain: AKCVSYGVAQIKAPALHSQGYTGSNVKVAVLASGIDSSHPDLNVAGGASFVPSETNPFQDNNSHGTHVAGTVLAVAPSASLYAVKVLGADGSGQASWIINGIEWAIANNMDVINMSLGSPSGSAALKAAVDKAVASGVVVVAAAGNSGTSGSSSTVSYPAKYPSVIAVGAVDSSNQRAPFSSVGPELDVMAPGVSICSTLPGGKYGALSGTSMASPHVAGAAALILSKHPNWTNTQVRSSLENTATKLGDSFYYGKGLINVEAAAQ
GA-PFRAL-S-GB [15]
  rate of GB release in saturating azide: 6.4 s⁻¹
  rate of GB release with no azide present: 0.0019 s⁻¹

B7: wild type subtilisin (protein)
chain: AQSVPYGVSQIKAPALHSQGYTGSNVKVAVIDSGIDSSHPDLKVAGGASMVPSETNPFQDNNSHGTHVAGTVAALNNSIGVLGVAPSASLYAVKVLGADGSGQYSWIINGIEWAIANNMDVINMSLGGPSGSAALKAAVDKAVASGVVVVAAAGNEGTSGSSSTVGYPGKYPSVIAVGAVDSSNQRASFSSVGPELDVMAPGVSIQSTLPGNKYGAYNGTSMASPHVAGAAALILSKHPNWTNTQVRSSLENTTTKLGDSFYYGKGLINVQAAAQ
Prodomain variant pS156
  cleavage of the prodomain loop: able to cleave
Prodomain variant pS170
  cleavage of the prodomain loop: able to cleave
